Reference: the supplement of paper PMC10724198

Assays:
[1] = test system: Saccharomyces cerevisiae; assay: protein stability index of tFT-peptide fusion in wild type (PSI (0-1 scale)); higher = more stable (slower turnover); settings: genetic background: wild type
[2] = test system: Saccharomyces cerevisiae; assay: protein stability index of tFT-peptide fusion in deletion strain of DOA10 (PSI (0-1 scale)); higher = more stable (slower turnover)
Protocol: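 MPS profiling in S. cerevisiae of two library types built from selected 12-aa C-degron peptides (IN1, IN2, LN1, LN3, VN2, R1-R5, W1-W3, Atg1 and Rpa12 C-termini): saturation mutagenesis libraries and C-terminal +1 capping libraries (13 aa). Each peptide is fused to the C-terminus of a sfGFP-mCherry timer, after a GGGS linker. Cells are FACS-sorted into 8 mCherry/sfGFP bins and sequenced. PSI runs from 0 (unstable) to 1 (stable), measured once in wild type and in the das1Δ or doa10Δ background.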
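Wherever protein stability index of tFT-peptide fusion in deletion strain of DOA10 is given: PSI per variant is the weighted mean of its sequencing read distribution over the sorted stability bins, counting only variants with over 10 reads summed across bins.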
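Wherever protein stability index of tFT-peptide fusion in wild type is given: PSI derived as read-weighted mean over the 8 sorting bins, only variants exceeding 10 total reads kept, mCherry placed adjacent to the peptide and sfGFP distal.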

Sequence	protein stability index [1]	protein stability index [2]
RNTRLDAIYFRI	0.529	0.664
GLYMCSVGCPFR	0.642	0.677
RVTRLDAMYFRI	0.549	0.698
CLVSNPILLFFR	0.368	0.661
RVNRLDAIYFRI	0.48	0.659
CLVSLPIKLFFR	0.123	0.652
GLYMCSVGCWFRR	0.347	0.646
AISLPMCPLLLR	0.226	0.655
RSLRVLLPLYFY	0.263	0.435
RVTCLDAIYFRI	0.477	0.655
ATTLPMCPLLLR	0.383	0.673
AIRLPMCPLLLR	0.27	0.649
RVTRCDAIYFRI	0.467	0.677
AITLPMCPLLLRQ	0.34	0.634
RVTRLKAIYFRI	0.155	0.32
RVTRLHAIYFRI	0.172	0.372
CLVSLPILLFVR	0.0446	0.249
GLYMCSDGCWFR	0.65	0.718
GLYMCSVGCWFN	0.29	0.343

Sequence	protein stability index [1]	protein stability index [2]
RSLRVELPLYFR	0.17	0.685
GLYMASVGCWFR	0.322	0.684
CLVSLNILLFFR	0.17	0.323
RSLRVPLPLYFR	0.113	0.687
GLQMCSVGCWFR	0.195	0.656
RSLRVLLPYYFR	0.545	0.678
RVTRLDAILFRI	0.453	0.705
RSLRVLLPQYFR	0.642	0.689
RSIRVLLPLYFR	0.225	0.643
CLVMLPILLFFR	0.0682	0.426
GLYMCSVGCWFC	0.261	0.287
CLVSLPMLLFFR	0.0605	0.626
GLYMCSGGCWFR	0.47	0.687
RVTRLPAIYFRI	0.217	0.636
CLVQLPILLFFR	0.0481	0.597
RSLRVLLPLYER	0.645	0.658
GLYHCSVGCWFR	0.409	0.674
CLVSLPIELFFR	0.596	0.656
AITLPMCPLLLRK	0.43	0.67

Sequence	protein stability index [1]	protein stability index [2]
RVTRLEAIYFRI	0.268	0.62
CGVSLPILLFFR	0.0581	0.622
CLVSLLILLFFR	0.319	0.408
RVTRLIAIYFRI	0.168	0.348
AITLIMCPLLLR	0.465	0.658
GLTMCSVGCWFR	0.219	0.674
RVTRLDARYFRI	0.667	0.718
AITLPMCPLLLC	0.134	0.184
RVTRLDAIYFRIA	0.0756	0.136
RVHRLDAIYFRI	0.438	0.659
GLYGCSVGCWFR	0.504	0.683
AITFPMCPLLLR	0.3	0.676
AITLPMCPLLLRM	0.172	0.573
GLVMCSVGCWFR	0.19	0.45
RSLRVLLPPYFR	0.658	0.689
CLVSLPILCFFR	0.0771	0.558
RSLRVLLPLYFRD	0.346	0.647
AITLPMCPLLPR	0.667	0.673
AITLRMCPLLLR	0.389	0.643
